Measurements reported in patent US20090124570A1, “Methods and Compositions for Facilitating Tissue Repair and Diagnosing, Preventing, and Treating Fibrosis” (University of Maryland, Baltimore, priority 2007, published 2009).
“Also recorded” adds a separate entry of the source.

Key:
[1] = test system: COL1A2 promoter; assay: Collagen promoter-CAT reporter construct in transfected fibroblasts; assay type: cell-based, human
Description: Production of collagen was measured in cell cultures utilizing the metabolic labeling of collagen with ^14C-proline as described by Luzina. I. G. Luzina et al. (2006) Am J Respir Cell Mol Biol. 35:298-305; I. G. Luzina et al. (2006) Arthritis Rheum. 54: 2643-2655. Briefly, fibroblast monolayers were pulsed with L-[U-^14C]-proline (Amersham Biosciences, Piscataway, N.J.) at 1 μCi/ml for the final 12 hours of incubation. Purified bacterial collagenase type III was purchased from Sigma Aldrich (St. Louis, Mo.). Fibroblasts were then ruptured by repeated freeze-thawing, and part of each sample digested with collagenase type III. The samples were pelleted with 20% TCA containing 0.1% L-proline, and then the pellets were resuspended and washed twice with 5% TCA and 95% ice-cold ethanol. The samples were assayed in a liquid scintillation counter in order to determine the amount of collagenase-digestible and non-digestible ^14C-labeled protein. Alternatively, collagen protein levels in cell culture supernatants were measured in Western blotting assays as described above. The activity of the COL1A2 promoter was measured in primary fibroblasts transfected with collagen promoter-chloramphenicol acetyltransferase (CAT) reporter constructs as described by Luzina. I. G. Luzina et al. (2006) Am J Respir Cell Mol Biol. 35:298-305. […]

[2] = test system: primary pulmonary fibroblasts; conditions: as reported by Luzina et al. 2006; cited from earlier work
[3] = test system: PU.1; assay: Transcription factor array, DNA binding by PU.1 in fibroblasts; assay type: cell-based, human; conditions: fibroblasts stimulated with 300 ng/ml rhBIGH3
Description: (§1) Nuclear extracts from BIGH3-activated and control fibroblast cultures were prepared using nuclear extraction kit from Active Motif (Carlsbad, Calif.) and adjusted for total protein content using Bio-Rad assays. DNA binding by 345 different transcription factors was evaluated using protein/DNA TranSignal™ system (Panomics, Redwood City, Calif.), following the manufacturer's recommendations.

[4] = test system: primary pulmonary fibroblasts; assay: Collagen production in primary fibroblast cultures (14C-proline incorporation, Western blotting); assay type: cell-based, human; conditions: primary fibroblasts stimulated with rhBIGH3, various doses and times, 14C-proline incorporation and Western blotting
Description: (§2) Preparation of cell lysates, immunoprecipitation of BIGH3 protein, normalization of protein concentration in the samples with BioRad assays, electrophoretic separation and Western blotting were performed as previously described by Atamas. S. P. Atamas et al. (2003) Am J Respir Cell Mol Biol. 29:743-749. Goat antibodies for BIGH3 were purchased from R&D Systems (Minneapolis, Minn.). Goat antibodies for MMP14 were purchased from Santa-Cruz Biotechnology (Santa Cruz, Calif.). Western blotting assays for collagen were performed using rabbit affinity purified anti-collagen type I antibody (Rockland, Gilbertsville, Pa.).
Production of collagen was measured in cell cultures utilizing the metabolic labeling of collagen with ^14C-proline as described by Luzina. I. G. Luzina et al. (2006) Am J Respir Cell Mol Biol. 35:298-305; I. G. Luzina et al. (2006) Arthritis Rheum. 54: 2643-2655. […] Alternatively, collagen protein levels in cell culture supernatants were measured in Western blotting assays as described above. The activity of the COL1A2 promoter was measured in primary fibroblasts transfected with collagen promoter-chloramphenicol acetyltransferase (CAT) reporter constructs as described by Luzina. […]
To test this possibility, fibroblast cultures were incubated for various times with various doses of recombinant human BIGH3 (rhBIGH3), and the levels of collagen accumulation were measured. […]

[5] = test system: p53; assay: Transcription factor array, DNA binding by p53 in fibroblasts; assay type: cell-based, human; conditions: fibroblasts stimulated with 300 ng/ml rhBIGH3
Description: as §1

[6] = test system: Smad3/4, Sp1, AP1, Ets; assay: Transcription factor array, DNA binding of collagen promoter regulators in fibroblasts; assay type: cell-based, human; conditions: BIGH3-stimulated vs control fibroblasts, transcription factor arrays
Description: Further experiments were performed to determine whether the increase in collagen levels stimulated by BIGH3 was due to transcriptional upregulation of the collagen gene expression.
as §1

[7] = test system: COL1A2 mRNA; assay: Real-time PCR of COL1A2 mRNA in fibroblasts; assay type: cell-based, human; conditions: BIGH3-treated vs control fibroblast cultures
Description: Total RNA purification, reverse transcription, and real-time PCR were performed using LightCycler (Roche, Indianapolis, Ind.), as previously described by Atamas. S. P. Atamas et al. (2003) Am J Respir Cell Mol Biol. 29:743-749. Quantification of internal control 18S ribosomal RNA was performed as reported previously by Luzina. I. G. Luzina et al. (2006) J Cell Physiol. 206:221-228. The PCR reaction mixture included the recommended components of the FastStart DNA Master Hybridization Probes Hot Start Reaction Mix (Roche, Indianapolis, Ind.). The fold difference in gene expression relative to 18S ribosomal RNA between treated and untreated cultures was calculated using the 2^−ΔΔCt method. I. G. Luzina et al. (2006) Arthritis Rheum. 54: 2643-2655. The primers and the hybridization probes for COL1A2 mRNA were designed and prepared by TIB Molbiol (Adelphia, N.J.). The primers for COL1A2 mRNA were: forward, 5′-GATGGTGAAGATGGTCCCACAGG-3′ (SEQ ID NO: 1) and reverse, 5′-GGTCGTCCGGGTTTTCCAGGGT-3′ (SEQ ID NO: 2). The hybridization probes were labeled with fluorescein at the 3′-terminus (3FL) of one probe and with LightCycler Red at the 5′-terminus (5LC) of the other probe. The probes were 3FL 5′-TTCCAAGGACCTGCTGGTGAGCCT-3′ (SEQ ID NO: 3) and 5LC 5′-TGAACCTGGTCAAACTGGTCCTGCAG-3′ (SEQ ID NO: 4). […]

[8] = test system: MMP14; assay: Western blotting for MMP14 protein in primary fibroblasts; assay type: cell-based, human; conditions: fibroblasts with 300 ng/ml rhBIGH3 for 24 h or 48 h
Description: as §2
Experiments were performed to determine whether BIGH3 upregulates collagen levels in fibroblast cultures by attenuating collagen turnover. To address such a possibility, experiments were performed in which primary fibroblasts were incubated for 6 h with or without 300 ng/ml BIGH3. The expression levels of 84 genes related to connective tissue biology were analyzed using reverse transcriptase—real time PCR approach (RT^2 Profiler™ SuperArray, Frederick, Md.). […] These experiments were repeated on three independent occasions with primary fibroblast cultures from different donors, with consistent results. MMP14 is a critical factor for collagen turnover by fibroblasts. H. Lee et al. (2006) Mol Biol Cell. 17:4812-4826. […]

[9] = test system: matrix metalloproteinase 2 (MMP2); assay: MMP2 levels in primary fibroblast cultures; assay type: cell-based, human; conditions: primary fibroblast cultures stimulated with recombinant BIGH3

## TGF-β [reference compound]
[1]
  response of collagen promoter-CAT reporter construct: responsive
[2]
  concentration of active TGF-β required for upregulation of collagen production: at least 500 pg/ml

B1: rhBIGH3: recombinant human BIGH3 (TGFBI, keratoepithelin), a 68 kDa extracellular matrix protein (protein, UniProt Q15582 24-683, looked up)
Transforming growth …: GPAKSPYQLVLQHSRLRGRQHGPNVCAVQKVIGTNRKYFTNCKQWYQRKICGKSTVISYECCPGYEKVPGEKGCPAALPLSNLYETLGVVGSTTTQLYTDRTEKLRPEMEGPGSFTIFAPSNEAWASLPAEVLDSLVSNVNIELLNALRYHMVGRRVLTDELKHGMTLTSMYQNSNIQIHHYPNGIVTVNCARLLKADHHATNGVVHLIDKVISTITNNIQQIIEIEDTFETLRAAVAASGLNTMLEGNGQYTLLAPTNEAFEKIPSETLNRILGDPEALRDLLNNHILKSAMCAEAIVAGLSVETLEGTTLEVGCSGDMLTINGKAIISNKDILATNGVIHYIDELLIPDSAKTLFELAAESDVSTAIDLFRQAGLGNHLSGSERLTLLAPLNSVFKDGTPPIDAHTRNLLRNHIIKDQLASKYLYHGQTLETLGGKKLRVFVYRNSLCIENSCIAAHDKRGRYGTLFTMDRVLTPPMGTVMDVLKGDNRFSMLVAAIQSAGLTETLNREGVYTVFAPTNEAFRALPPRERSRLLGDAKELANILKYHIGDEILVSGGIGALVRLKSLQGDKLEVSLKNNVVSVNKEPVAEPDIMATNGVVHVITNVLQPPANRPQERGDELADSALEIFKQASAFSRASQRSVRLAPVYQKLLERMKH
[3]
  DNA binding by PU.1: significant upregulation
[3]; listed as BIGH3
  DNA binding by PU.1: increased
[4]
  collagen protein levels: directly regulated collagen production; also recorded: Increases in collagen protein levels
[4]; listed as recombinant BIGH3
  collagen protein levels: upregulation of collagen protein
[1]
  response of collagen promoter-CAT reporter construct: no differences were observed; also recorded: non-responsive
[5]
  DNA binding by p53: downregulation
[5]; listed as BIGH3
  DNA binding by p53: decreased
[6]
  DNA binding activity of Smad3/4, Sp1, AP1, Ets: no differences were detected; also recorded: no increase in the activity
[7]
  collagen (COL1A2) mRNA steady-state levels: no differences in steady-state levels; also recorded: did not stimulate an increase in collagen mRNA
[8]
  MMP14 protein levels: decreased significantly
[9]
  MMP2 levels: downregulation
